According to the supplement of paper PMC9112550, “Optimization of the antimicrobial peptide Bac7 by deep mutational scanning” (BMC Biology, 2022):

Test system: Escherichia coli TOP10
Assay: shrunken log2 fold change of peptide-encoding DNA abundance (4.5 h post-induction vs induction); higher = less antimicrobial activity (less host growth inhibition)
Settings: time post-induction: 4.5 h; library: site-saturation at positions 5, 18, 19, 20
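Also: peptides expressed intracellularly from a pBAD plasmid library in pooled LB shake-flask culture, induced with 0.3% L-arabinose, DNA abundance read by NGS, three biological replicates, DESeq2 with apeglm shrinkage.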

| Sequence | shrunken log2 fold change |
| --- | --- |
| RRIRFRPPRLPRPRPRPQMHPRP | -0.332 |
| RRIRTRPPRLPRPRPRPCFIPRP | -1.05 |
| RRIRRRPPRLPRPRPRPRASPRP | 0.527 |
| RRIRKRPPRLPRPRPRPVMWPRP | -0.221 |
| RRIRQRPPRLPRPRPRPGHTPRP | 0.0169 |
| RRIRSRPPRLPRPRPRPMRFPRP | 0.378 |
| RRIRNRPPRLPRPRPRPLVEPRP | -0.187 |
| RRIRQRPPRLPRPRPRPCVYPRP | 4.4 |
| RRIRCRPPRLPRPRPRPVSLPRP | -0.379 |
| RRIRLRPPRLPRPRPRPCNGPRP | -0.00674 |
| RRIRRRPPRLPRPRPRPNDQPRP | 0.261 |
| RRIRKRPPRLPRPRPRPITSPRP | 0.22 |
| RRIRERPPRLPRPRPRPFNLPRP | -0.233 |
| RRIRIRPPRLPRPRPRPQNSPRP | -0.595 |
| RRIRLRPPRLPRPRPRPERLPRP | 0.466 |
| RRIRWRPPRLPRPRPRPKQPPRP | 0.334 |
| RRIRGRPPRLPRPRPRPTIIPRP | -0.026 |
| RRIRFRPPRLPRPRPRPIICPRP | 0.12 |
| RRIRFRPPRLPRPRPRPMCVPRP | -0.405 |
| RRIRHRPPRLPRPRPRPYYDPRP | -0.0623 |
| RRIRARPPRLPRPRPRPSMRPRP | 1.03 |
| RRIRCRPPRLPRPRPRPRKPPRP | 0.218 |
| RRIRPRPPRLPRPRPRPHHYPRP | -0.37 |
| RRIRNRPPRLPRPRPRPSNTPRP | -0.446 |
| RRIRERPPRLPRPRPRPWGQPRP | 0.115 |

| Sequence | shrunken log2 fold change |
| --- | --- |
| RRIRVRPPRLPRPRPRPQLVPRP | -0.048 |
| RRIRPRPPRLPRPRPRPAYYPRP | -0.0697 |
| RRIRTRPPRLPRPRPRPGVFPRP | -0.0409 |
| RRIRPRPPRLPRPRPRPNQKPRP | -0.0811 |
| RRIRPRPPRLPRPRPRPAQHPRP | 0.223 |
| RRIRHRPPRLPRPRPRPDRVPRP | -0.0183 |
| RRIRLRPPRLPRPRPRPDMIPRP | -0.0232 |
| RRIRWRPPRLPRPRPRPLFMPRP | -0.286 |
| RRIRWRPPRLPRPRPRPHTLPRP | -0.325 |
| RRIRLRPPRLPRPRPRPCWIPRP | -0.241 |
| RRIRQRPPRLPRPRPRPWFKPRP | -0.183 |
| RRIRERPPRLPRPRPRPRSDPRP | -0.323 |
| RRIRARPPRLPRPRPRPLPEPRP | 0.542 |
| RRIRDRPPRLPRPRPRPKWYPRP | -0.0377 |
| RRIRNRPPRLPRPRPRPWNTPRP | 0.0705 |
| RRIRGRPPRLPRPRPRPWQQPRP | 0.0543 |
| RRIRARPPRLPRPRPRPNVIPRP | -0.433 |
| RRIRSRPPRLPRPRPRPCNRPRP | 0.0326 |
| RRIRRRPPRLPRPRPRPCTVPRP | -0.0302 |
| RRIRNRPPRLPRPRPRPPTQPRP | 0.267 |
| RRIRARPPRLPRPRPRPIWKPRP | -0.0642 |
| RRIRDRPPRLPRPRPRPQVIPRP | -0.0205 |
| RRIRTRPPRLPRPRPRPPETPRP | 0.161 |
| RRIRRRPPRLPRPRPRPGPLPRP | 0.415 |
| RRIRYRPPRLPRPRPRPRVDPRP | -0.531 |

| Sequence | shrunken log2 fold change |
| --- | --- |
| RRIRWRPPRLPRPRPRPPRFPRP | 0.326 |
| RRIRFRPPRLPRPRPRPVVRPRP | 0.153 |
| RRIRFRPPRLPRPRPRPSTPPRP | -0.463 |
| RRIRTRPPRLPRPRPRPVAEPRP | 0.191 |
| RRIRTRPPRLPRPRPRPEYFPRP | -0.186 |
| RRIRGRPPRLPRPRPRPTAVPRP | 2.41 |
| RRIRSRPPRLPRPRPRPMKSPRP | 0.328 |
| RRIRQRPPRLPRPRPRPSSQPRP | -0.395 |
| RRIRVRPPRLPRPRPRPQVGPRP | 0.251 |
| RRIRCRPPRLPRPRPRPDLNPRP | 0.127 |
| RRIRIRPPRLPRPRPRPSQWPRP | -1.15 |
| RRIRERPPRLPRPRPRPKREPRP | 0.118 |
| RRIRERPPRLPRPRPRPFAGPRP | -1.68 |
| RRIRSRPPRLPRPRPRPWVNPRP | -0.0336 |
| RRIRHRPPRLPRPRPRPPVGPRP | 0.183 |
| RRIRSRPPRLPRPRPRPDVFPRP | -0.098 |
| RRIRWRPPRLPRPRPRPKQRPRP | 0.473 |
| RRIRKRPPRLPRPRPRPEGVPRP | 1.44 |
| RRIRYRPPRLPRPRPRPHRYPRP | -0.41 |
| RRIRWRPPRLPRPRPRPSCTPRP | -0.11 |
| RRIRNRPPRLPRPRPRPCGRPRP | -0.0266 |
| RRIRDRPPRLPRPRPRPFTIPRP | -0.0247 |
| RRIRYRPPRLPRPRPRPNYLPRP | -0.161 |
| RRIRMRPPRLPRPRPRPFGWPRP | 0.32 |
| RRIRHRPPRLPRPRPRPHGAPRP | -0.183 |

| Sequence | shrunken log2 fold change |
| --- | --- |
| RRIRGRPPRLPRPRPRPQKMPRP | 0.331 |
| RRIRERPPRLPRPRPRPAKWPRP | 0.0478 |
| RRIRLRPPRLPRPRPRPSMWPRP | 0.0718 |
| RRIRNRPPRLPRPRPRPMQIPRP | 0.0592 |
| RRIRNRPPRLPRPRPRPCWYPRP | -0.0865 |
| RRIRRRPPRLPRPRPRPYFLPRP | -0.542 |
| RRIRYRPPRLPRPRPRPRESPRP | 0.0662 |
| RRIRERPPRLPRPRPRPEDGPRP | -0.0324 |
| RRIRYRPPRLPRPRPRPTPAPRP | 0.238 |
| RRIRYRPPRLPRPRPRPPAVPRP | -0.143 |
| RRIRVRPPRLPRPRPRPKCAPRP | 0.0145 |
| RRIRIRPPRLPRPRPRPDIMPRP | -0.121 |
| RRIRMRPPRLPRPRPRPQEQPRP | 0.186 |
| RRIRYRPPRLPRPRPRPLHYPRP | -1.53 |
| RRIRERPPRLPRPRPRPQKVPRP | -0.102 |
| RRIRWRPPRLPRPRPRPGSWPRP | 0.517 |
| RRIRFRPPRLPRPRPRPIERPRP | 0.116 |
| RRIRLRPPRLPRPRPRPCKEPRP | -0.0177 |
| RRIRHRPPRLPRPRPRPHMTPRP | -0.0109 |
| RRIRNRPPRLPRPRPRPSNEPRP | -0.717 |
| RRIRSRPPRLPRPRPRPKEVPRP | -0.00238 |
| RRIRTRPPRLPRPRPRPAFMPRP | -0.0227 |
| RRIRHRPPRLPRPRPRPETHPRP | 0.0411 |
| RRIRERPPRLPRPRPRPGALPRP | 0.122 |
| RRIRLRPPRLPRPRPRPDMMPRP | -0.295 |

| Sequence | shrunken log2 fold change |
| --- | --- |
| RRIRRRPPRLPRPRPRPYPFPRP | -0.238 |
| RRIRVRPPRLPRPRPRPSSMPRP | -0.157 |
| RRIRVRPPRLPRPRPRPQLQPRP | -0.104 |
| RRIRYRPPRLPRPRPRPNFIPRP | -1.22 |
| RRIRQRPPRLPRPRPRPMKTPRP | 0.0802 |
| RRIRCRPPRLPRPRPRPQEDPRP | -0.0835 |
| RRIRYRPPRLPRPRPRPVNSPRP | -0.0185 |
| RRIRDRPPRLPRPRPRPVLLPRP | -0.00551 |
| RRIRIRPPRLPRPRPRPHTEPRP | 0.0578 |
| RRIRERPPRLPRPRPRPNSWPRP | -0.0404 |
| RRIRHRPPRLPRPRPRPARDPRP | 0.147 |
| RRIRVRPPRLPRPRPRPRSWPRP | 0.325 |
| RRIRHRPPRLPRPRPRPIPHPRP | -0.664 |
| RRIRHRPPRLPRPRPRPHIVPRP | -0.104 |
| RRIRMRPPRLPRPRPRPNMPPRP | -0.286 |
| RRIRIRPPRLPRPRPRPASAPRP | 0.613 |
| RRIRGRPPRLPRPRPRPDRHPRP | 0.191 |
| RRIRIRPPRLPRPRPRPHPCPRP | -0.736 |
| RRIRMRPPRLPRPRPRPSVWPRP | 0.275 |
| RRIRPRPPRLPRPRPRPKADPRP | 0.0968 |
| RRIRRRPPRLPRPRPRPMFKPRP | 0.168 |
| RRIRPRPPRLPRPRPRPCVMPRP | -0.162 |
| RRIRARPPRLPRPRPRPKWNPRP | 0.286 |
| RRIRTRPPRLPRPRPRPRNKPRP | -0.342 |
| RRIRERPPRLPRPRPRPGWVPRP | 0.381 |
